In PMC5902495, “Synthesis of Symmetrical Tetrameric Conjugates of the Radiolanthanide Chelator DOTPI for Application in Endoradiotherapy by Means of Click Chemistry” (Frontiers in Chemistry, 2018):

Key:
[1] = tested on: subcutaneous LNCaP (PSMA-expressing human prostate carcinoma) xenografts; assay: Biodistribution in SCID mice bearing LNCaP xenografts; assay type: in vivo; conditions: compared to ^177Lu-DOTPI(DBCO-KuE)4
Experimental: The experiments were carried out in accordance with the German Animal Welfare Act (Tierschutzgesetz), and were previously approved by the responsible authority (Regierung von Oberbayern). The animal model, male CB-17 SCID mice bearing subcutaneous LNCaP tumor xenografts, were generated as described before (Weineisen et al., [2014]). Approximately 1–4 MBq (varying molar activities; absolute molar amounts of active compound ranging from 0.11 to 0.15 nmol) of the ^177Lu-labeled PSMA inhibitors were injected into the tail vein of the animals, which were sacrificed 1 and 24 h post injection (n = 3 per tracer per time point). Selected organs were removed, weighted and the activities contained were measured in a γ-counter.

[2] = Octanol-water distribution coefficients; assay type: physicochemical; conditions: n-octanol / PBS pH 7.4, ^177Lu-labeled tracer, n = 6
Experimental: Approximately 1 MBq of the ^177Lu-labeled tracer was added to a mixture of 0.5 mL phosphate buffered saline (PBS, pH 7.4) and 0.5 mL n-octanol in an Eppendorf tube (n = 6). After vigorous mixing of the suspension for 3 min, the vial was centrifuged at 11.500 g for 3 min for phase separation. 200 μL aliquots of each phase were withdrawn and measured in a gamma counter.

In the case of O=C(O)CC[C@H](NC(=O)N[C@@H](CCCCNC(=O)CCCCCNC(=O)CCc1cn(CCCNC(=O)CCP(=O)(O)CN2CCN(CP(=O)(O)CCC(=O)NCCCn3cc(CCC(=O)NCCCCCC(=O)NCCCC[C@H](NC(=O)N[C@@H](CCC(=O)O)C(=O)O)C(=O)O)nn3)CCN(CP(=O)(O)CCC(=O)NCCCn3cc(CCC(=O)NCCCCCC(=O)NCCCC[C@H](NC(=O)N[C@@H](CCC(=O)O)C(=O)O)C(=O)O)nn3)CCN(CP(=O)(O)CCC(=O)NCCCn3cc(CCC(=O)NCCCCCC(=O)NCCCC[C@H](NC(=O)N[C@@H](CCC(=O)O)C(=O)O)C(=O)O)nn3)CC2)nn1)C(=O)O)C(=O)O (single isomer, unassigned) [^177Lu-DOTPI(Trz-KuE)4, metal not drawn], the kidney uptake ([1]; 1 and 24 h post injection) is reported as “remarkably low”, the tumor-to-organ ratios ([1]; after 24 h) is reported as “substantially better” and the “washout from non-target tissues” value [1] is reported as “much faster”. For the same molecule, the logD [2] was -5 ± 0.1.
